Results taken from the supplement of paper PMC9876800.

System: peptide library, one residue held at a place counted from the S/T acceptor
Experiment: relative phosphorylation of the sub-library (ratio to the mean residue at this position); higher = residue favoured
Details: human
Procedure, shortened: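 Relative sub-library phosphorylation, a ratio to the mean residue at that position, was obtained by phosphorimaging and densitometry of spots on streptavidin membranes. Before capture, purified recombinant kinases were incubated for 90 min under kinase-specific conditions with 50 μM biotinylated degenerate peptide sub-libraries and 50 μM ATP spiked with γ-32P-ATP. Each sub-library fixed one residue at one position around a central Ser/Thr.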

Chain of DYRK1B, construct: Full length (Q9Y463 whole entry, looked up): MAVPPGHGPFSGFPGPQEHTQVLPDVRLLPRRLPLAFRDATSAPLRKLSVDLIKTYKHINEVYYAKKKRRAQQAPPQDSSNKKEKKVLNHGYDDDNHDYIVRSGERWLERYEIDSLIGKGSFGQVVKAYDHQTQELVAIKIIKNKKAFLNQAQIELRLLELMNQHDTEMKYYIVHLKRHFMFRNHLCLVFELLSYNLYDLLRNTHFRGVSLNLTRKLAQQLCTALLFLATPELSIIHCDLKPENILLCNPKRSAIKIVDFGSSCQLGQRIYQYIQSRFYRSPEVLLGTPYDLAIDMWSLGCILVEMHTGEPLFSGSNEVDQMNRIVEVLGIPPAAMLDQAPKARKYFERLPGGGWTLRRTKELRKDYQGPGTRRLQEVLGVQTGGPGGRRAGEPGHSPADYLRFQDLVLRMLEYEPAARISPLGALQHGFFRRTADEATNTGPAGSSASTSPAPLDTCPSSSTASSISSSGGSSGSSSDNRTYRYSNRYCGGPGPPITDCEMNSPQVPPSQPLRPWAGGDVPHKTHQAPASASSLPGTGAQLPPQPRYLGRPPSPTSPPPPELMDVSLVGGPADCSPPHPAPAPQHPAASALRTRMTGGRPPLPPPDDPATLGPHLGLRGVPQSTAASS
Chain of PBK, construct: Full length (Q96KB5 whole entry, looked up): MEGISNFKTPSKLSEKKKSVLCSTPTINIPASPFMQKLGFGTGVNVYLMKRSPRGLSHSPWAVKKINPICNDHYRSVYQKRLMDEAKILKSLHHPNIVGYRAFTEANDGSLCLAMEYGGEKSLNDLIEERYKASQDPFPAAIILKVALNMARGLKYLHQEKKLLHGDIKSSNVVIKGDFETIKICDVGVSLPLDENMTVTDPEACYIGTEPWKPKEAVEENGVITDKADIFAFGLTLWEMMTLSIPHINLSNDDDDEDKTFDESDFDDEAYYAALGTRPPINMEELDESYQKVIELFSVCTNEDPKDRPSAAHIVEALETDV
Chain of CAMK1D, construct: Full length (Q8IU85 whole entry, looked up): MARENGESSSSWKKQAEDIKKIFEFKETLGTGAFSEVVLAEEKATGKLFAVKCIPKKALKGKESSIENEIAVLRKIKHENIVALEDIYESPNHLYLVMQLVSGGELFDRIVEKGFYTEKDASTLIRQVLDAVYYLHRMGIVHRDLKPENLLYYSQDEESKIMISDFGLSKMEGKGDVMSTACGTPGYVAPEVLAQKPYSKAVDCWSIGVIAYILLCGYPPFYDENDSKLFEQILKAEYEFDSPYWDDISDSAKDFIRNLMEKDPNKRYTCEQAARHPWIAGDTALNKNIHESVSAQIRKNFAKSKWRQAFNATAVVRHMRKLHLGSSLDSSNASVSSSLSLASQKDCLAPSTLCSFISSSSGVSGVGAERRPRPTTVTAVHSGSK

PBK, construct: Full length (from UniProt Q96KB5)
relative phosphorylation
Details | at +1 | at +2 | at +3 | at +4 | at -1 | at -2 | at -3 | at -4 | at -5
A fixed | 1.09 | 1.14 | 1.03 | 1.16 | 1.08 | 0.848 | 1 | 1.04 | 1.29
D fixed | 0.572 | 0.524 | 0.634 | 0.644 | 0.384 | 0.427 | 0.364 | 0.545 | 0.576
E fixed | 0.364 | 0.523 | 0.604 | 0.608 | 0.397 | 0.382 | 0.37 | 0.534 | 0.491
F fixed | 0.394 | 0.849 | 0.728 | 0.848 | 0.814 | 1.47 | 1.57 | 1.07 | 0.756
G fixed | 7.99 | 1.17 | 1.69 | 1.23 | 1.25 | 0.76 | 0.673 | 1.11 | 1
H fixed | 0.527 | 1.11 | 1.2 | 0.777 | 1.48 | 1.06 | 0.965 | 1.16 | 1.41
I fixed | 0.386 | 0.928 | 0.641 | 0.976 | 0.394 | 1.07 | 0.587 | 0.563 | 0.733
K fixed | 0.475 | 0.775 | 1.25 | 1.2 | 1.37 | 1.7 | 1.49 | 1.23 | 1.38
L fixed | 0.52 | 1.04 | 0.907 | 1.05 | 0.719 | 1.07 | 0.691 | 0.669 | 0.723
M fixed | 0.93 | 1.29 | 0.717 | 0.98 | 1.06 | 1.09 | 0.845 | 0.826 | 0.833
N fixed | 0.658 | 0.913 | 1.05 | 0.855 | 1.09 | 0.678 | 0.625 | 0.991 | 0.981
P fixed | 0.592 | 1.38 | 1.69 | 1.56 | 1.06 | 0.878 | 0.872 | 1.16 | 0.914
Q fixed | 0.53 | 0.802 | 0.954 | 0.845 | 1.55 | 0.685 | 0.707 | 0.856 | 0.77
R fixed | 0.535 | 0.829 | 1.24 | 1.05 | 1.81 | 1.23 | 1.98 | 1.56 | 1.99
V fixed | 0.476 | 1.37 | 0.956 | 0.983 | 0.517 | 0.932 | 0.709 | 0.642 | 0.777
W fixed | 0.552 | 1.45 | 0.816 | 1.17 | 0.76 | 1.57 | 1.89 | 2.04 | 1.55
Y fixed | 0.406 | 0.891 | 0.9 | 1.07 | 1.27 | 1.14 | 1.66 | 1.01 | 0.812
pThr fixed | 0.348 | 0.618 | 0.721 | 0.507 | 0.317 | 0.586 | 0.638 | 0.803 | 0.703
pTyr fixed | 0.287 | 0.497 | 0.574 | 0.529 | 0.537 | 0.508 | 0.554 | 0.703 | 0.576

CAMK1D, construct: Full length (from UniProt Q8IU85)
relative phosphorylation
Details | at +1 | at +2 | at +3 | at +4 | at -1 | at -2 | at -3 | at -4 | at -5
A fixed | 0.771 | 0.831 | 0.729 | 0.681 | 0.791 | 0.914 | 0.52 | 0.782 | 0.533
D fixed | 0.658 | 1.06 | 1.35 | 0.996 | 0.975 | 0.373 | 0.154 | 0.438 | 0.269
E fixed | 0.811 | 1.22 | 1.15 | 0.974 | 0.646 | 0.504 | 0.22 | 0.784 | 0.252
F fixed | 1.75 | 1.14 | 1.17 | 1.39 | 0.597 | 0.446 | 0.631 | 0.724 | 1.38
G fixed | 0.761 | 0.625 | 0.956 | 0.822 | 0.793 | 0.772 | 0.287 | 0.698 | 0.564
H fixed | 1.03 | 1.47 | 1.34 | 0.936 | 1.35 | 0.962 | 0.964 | 0.955 | 0.787
I fixed | 0.665 | 0.881 | 0.722 | 1.35 | 0.475 | 0.37 | 0.132 | 0.815 | 1.31
K fixed | 1.26 | 0.591 | 0.717 | 0.675 | 1.9 | 1.95 | 2.7 | 2.58 | 0.999
L fixed | 0.744 | 1.06 | 0.892 | 1.39 | 0.759 | 0.526 | 0.164 | 0.886 | 2.33
M fixed | 1.01 | 0.846 | 0.854 | 1.51 | 0.824 | 1.09 | 0.238 | 0.995 | 1.35
N fixed | 1.29 | 1.3 | 1.44 | 1.01 | 1.85 | 0.965 | 0.414 | 0.923 | 0.594
P fixed | 0.237 | 0.753 | 0.786 | 1.12 | 1.41 | 0.311 | 0.389 | 0.63 | 1.19
Q fixed | 1.68 | 1.14 | 1.07 | 0.969 | 1.28 | 2.08 | 0.63 | 1.06 | 0.905
R fixed | 1.62 | 0.7 | 0.785 | 0.616 | 1.5 | 3.51 | 8.75 | 2.35 | 1.85
V fixed | 0.747 | 0.736 | 0.627 | 0.746 | 0.523 | 0.448 | 0.153 | 0.883 | 0.752
W fixed | 0.971 | 1.3 | 1.34 | 0.973 | 0.486 | 1.13 | 0.395 | 0.706 | 0.977
Y fixed | 0.988 | 1.35 | 1.07 | 0.833 | 0.834 | 0.656 | 0.263 | 0.789 | 0.961
pThr fixed | 0.967 | 0.874 | 0.756 | 1.2 | 0.312 | 0.312 | 0.221 | 0.486 | 0.375
pTyr fixed | 0.844 | 2.75 | 1.25 | 0.949 | 0.739 | 0.291 | 0.205 | 0.431 | 0.739

DYRK1B, construct: Full length (from UniProt Q9Y463)
relative phosphorylation
Details | at +1 | at +2 | at +3 | at +4 | at -1 | at -2 | at -3 | at -4 | at -5
A fixed | 0.436 | 0.893 | 0.7 | 0.79 | 1.08 | 2.23 | 0.812 | 0.901 | 0.902
D fixed | 0.147 | 0.891 | 0.762 | 0.879 | 0.607 | 0.261 | 0.56 | 1.58 | 0.658
E fixed | 0.161 | 0.8 | 0.932 | 0.829 | 0.626 | 0.28 | 0.445 | 0.719 | 0.554
F fixed | 0.182 | 1.26 | 1.04 | 1.68 | 0.605 | 0.346 | 0.407 | 0.645 | 0.816
G fixed | 0.957 | 0.824 | 1 | 0.925 | 1.14 | 0.889 | 1.33 | 0.933 | 1.15
H fixed | 0.249 | 1.16 | 1.37 | 1.11 | 0.926 | 0.456 | 0.748 | 0.837 | 1.23
I fixed | 0.239 | 1.26 | 0.987 | 1.14 | 0.495 | 0.727 | 0.32 | 0.607 | 0.956
K fixed | 0.469 | 0.653 | 0.621 | 0.808 | 1.6 | 0.623 | 0.983 | 1.22 | 1.5
L fixed | 0.222 | 1.28 | 1.25 | 1.1 | 0.747 | 0.926 | 0.491 | 0.756 | 0.785
M fixed | 0.71 | 1.06 | 1.22 | 1.32 | 1.04 | 0.729 | 0.513 | 0.718 | 0.721
N fixed | 0.21 | 1.02 | 0.991 | 0.902 | 0.86 | 0.806 | 0.712 | 0.806 | 0.903
P fixed | 11 | 0.972 | 2.32 | 0.904 | 1.66 | 2.48 | 1.04 | 1.01 | 0.988
Q fixed | 0.265 | 0.893 | 0.88 | 0.9 | 1.12 | 0.584 | 0.73 | 0.824 | 0.851
R fixed | 0.947 | 0.77 | 0.713 | 0.811 | 1.93 | 3.56 | 5.96 | 3.05 | 2.61
V fixed | 0.448 | 1.24 | 0.706 | 0.854 | 0.672 | 0.944 | 0.373 | 0.544 | 0.599
W fixed | 0.241 | 1.02 | 0.742 | 1.06 | 0.853 | 0.723 | 0.539 | 0.865 | 0.8
Y fixed | 0.161 | 1.01 | 0.77 | 0.994 | 1.02 | 0.43 | 1.03 | 0.987 | 0.983
pThr fixed | 0.476 | 1.01 | 0.551 | 0.927 | 0.454 | 0.594 | 0.577 | 0.891 | 0.802
pTyr fixed | 0.537 | 0.813 | 0.705 | 0.961 | 0.76 | 0.433 | 0.559 | 0.672 | 0.849
